Among the data in patent US20250145710A1 (published 2025) are EC50 values, retold here.

The target of one assay is human CD3 (UniProt P07766 23-207; P04234 22-171; P09693 23-182). The assay is described as follows: flow cytometry cell binding.
For a further assay, the target named is T1, human CLDN6 (human, UniProt P56747 1-220).
T1 chain: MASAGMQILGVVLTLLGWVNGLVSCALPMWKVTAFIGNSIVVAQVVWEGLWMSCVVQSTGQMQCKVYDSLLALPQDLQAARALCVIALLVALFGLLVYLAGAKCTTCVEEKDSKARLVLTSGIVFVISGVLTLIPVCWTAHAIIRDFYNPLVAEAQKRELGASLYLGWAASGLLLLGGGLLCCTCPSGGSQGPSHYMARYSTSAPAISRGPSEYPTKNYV
The assay is described as follows: flow cytometry cell binding.

Sequence of human CD3 (P07766 23-207, chain 1 of 3): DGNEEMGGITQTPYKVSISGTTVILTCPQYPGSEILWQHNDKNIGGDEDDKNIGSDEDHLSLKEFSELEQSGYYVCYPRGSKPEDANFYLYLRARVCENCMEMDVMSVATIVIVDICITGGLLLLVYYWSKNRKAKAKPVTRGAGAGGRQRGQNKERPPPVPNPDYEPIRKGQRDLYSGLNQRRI
Sequence of human CD3 (P04234 22-171, chain 2 of 3): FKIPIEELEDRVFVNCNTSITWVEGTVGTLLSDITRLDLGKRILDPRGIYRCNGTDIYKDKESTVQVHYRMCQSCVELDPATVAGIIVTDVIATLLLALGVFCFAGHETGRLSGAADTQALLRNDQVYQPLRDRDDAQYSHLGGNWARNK
Sequence of human CD3 (P09693 23-182, chain 3 of 3): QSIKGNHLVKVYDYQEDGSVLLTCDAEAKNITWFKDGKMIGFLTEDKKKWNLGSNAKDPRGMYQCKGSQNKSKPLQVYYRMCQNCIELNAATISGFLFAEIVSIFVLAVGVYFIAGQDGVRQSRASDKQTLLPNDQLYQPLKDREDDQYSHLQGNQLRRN

B1: IMC-21-1 IgG-(scFv)2 antibody (bispecific antibody)
heavy: not shown
light: SYELTQPPSVSVSPGQTARITCSAGSGLYGWYQQKPGQAPVLVIYGTNKRPSGIPERFSGSSSGTTVTLTISGVQAEDEADYYCGSADSSTNAGIFGGGTKLTVLGQPKAAPSVTLFPPSSEELQANKATLVCLISDFYPGAVTVAWKADSSPVKAGVETTTPSKQSNNKYAASSYLSLTPEQWKSHRSYSCQVTHEGSTVEKTVAPTECS
As to B1, the concentration for a half-maximal effect (EC50) was found to be 53.6 nM in the assay with human CD3 and 7.2 nM with human CLDN6.

B2: IMC-16-3 scFv-Fab IgG antibody (bispecific antibody)
heavy: EVQLLESGGGLVQPGGSLRLSCAASGFTFSSYAMNWVRQAPGKGLEWVAGISSSGRYTGYADSVKGRFTISRDNSKNTLYLQMNSLRAEDTAVYYCAKSVGSGVSWSGYVATSLDAWGQGTLVTVSSASTKGPSVFPLAPSSKSTSGGTAALGCLVKDYFPEPVTVSWNSGALTSGVHTFPAVLQSSGLYSLSSVVTVPSSSLGTQTYICNVNHKPSNTKVDKKVEPKSCDKTHTCPPCPAPEAAGGPSVFLFPPKPKDTLMISRTPEVTCVVVDVSHEDPEVKFNWYVDGVEVHNAKTKPREEQYNSTYRVVSVLTVLHQDWLNGKEYKCKVSNKALPAPIEKTISKAKGQPREPQVYTLPPSREEMTKNQVSLWCLVKGFYPSDIAVEWESNGQPENNYKTTPPVLDSDGSFFLYSKLTVDKSRWQQGNVFSCSVMHEALHNHYTQKSLSLSPGK
light: SYELTQPPSVSVSPGQTARITCSAGSGLYGWYQQKPGQAPVLVIYGTNKRPSGIPERFSGSSSGTTVTLTISGVQAEDEADYYCGSADSSTNAGIFGGGTKLTVLGQPKAAPSVTLFPPSSEELQANKATLVCLISDFYPGAVTVAWKADSSPVKAGVETTTPSKQSNNKYAASSYLSLTPEQWKSHRSYSCQVTHEGSTVEKTVAPTECS
scFv: EVQLVESGGGLVQPGGSLRLSCAASGFTFSTYAMNWVRQAPGKGLEWVGRIRSKYNNYATYYADSVKGRFTISRDDSKNTLYLQMNSLRAEDTAVYYCVRHGNFGDSYVSWFAYWGQGTLVTVSSGKPGSGKPGSGKPGSGKPGSQAVVTQEPSLTVSPGGTVTLTCGSSTGAVTTSNYANWVQQKPGKSPRGLIGGTNKRAPGVPARFSGSLLGGKAALTISGAQPEDEADYYCALWYSNHWVFGGGTKLTVLASPKSSDKTHTCPPCPAPEAAGGPSVFLFPPKPKDTLMISRTPEVTCVVVDVSHEDPEVKFNWYVDGVEVHNAKTKPREEQYNSTYRVVSVLTVLHQDWLNGKEYKCKVSNKALPAPIEKTISKAKGQPREPQVYTLPPSREEMTKNQVSLSCAVKGFYPSDIAVEWESNGQPENNYKTTPPVLDSDGSFFLVSKLTVDKSRWQQGNVFSCSVMHEALHNHYTQKSLSLSPGK
Regarding B2, the EC50 with human CD3 worked out at 3.46 nM; in the assay with human CLDN6 it was 13.7 nM.

B3: IMC-16-15 scFv-Fab IgG antibody (bispecific antibody)
heavy: EVQLLESGGGLVQPGGSLRLSCAASGFTFSSYAMNWVRQAPGKGLEWVAGISSSGRYTGYADSVKGRFTISRDNSKNTLYLQMNSLRAEDTAVYYCAKSMGSGVSWSGYVATSIDVWGQGTLVTVSSASTKGPSVFPLAPSSKSTSGGTAALGCLVKDYFPEPVTVSWNSGALTSGVHTFPAVLQSSGLYSLSSVVTVPSSSLGTQTYICNVNHKPSNTKVDKKVEPKSCDKTHTCPPCPAPEAAGGPSVFLFPPKPKDTLMISRTPEVTCVVVDVSHEDPEVKFNWYVDGVEVHNAKTKPREEQYNSTYRVVSVLTVLHQDWLNGKEYKCKVSNKALPAPIEKTISKAKGQPREPQVYTLPPSREEMTKNQVSLWCLVKGFYPSDIAVEWESNGQPENNYKTTPPVLDSDGSFFLYSKLTVDKSRWQQGNVFSCSVMHEALHNHYTQKSLSLSPGK
light: SYELTQPPSVSVSPGQTARITCSAGSGLYGWYQQKPGQAPVLVIYGTNKRPSGIPERFSGSSSGTTVTLTISGVQAEDEADYYCGSADSSTNAGIFGGGTKLTVLGQPKAAPSVTLFPPSSEELQANKATLVCLISDFYPGAVTVAWKADSSPVKAGVETTTPSKQSNNKYAASSYLSLTPEQWKSHRSYSCQVTHEGSTVEKTVAPTECS
scFv: EVQLVESGGGLVQPGGSLRLSCAASGFTFSTYAMNWVRQAPGKGLEWVGRIRSKYNNYATYYADSVKGRFTISRDDSKNTLYLQMNSLRAEDTAVYYCVRHGNFGDSYVSWFAYWGQGTLVTVSSGKPGSGKPGSGKPGSGKPGSQAVVTQEPSLTVSPGGTVTLTCGSSTGAVTTSNYANWVQQKPGKSPRGLIGGTNKRAPGVPARFSGSLLGGKAALTISGAQPEDEADYYCALWYSNHWVFGGGTKLTVLASPKSSDKTHTCPPCPAPEAAGGPSVFLFPPKPKDTLMISRTPEVTCVVVDVSHEDPEVKFNWYVDGVEVHNAKTKPREEQYNSTYRVVSVLTVLHQDWLNGKEYKCKVSNKALPAPIEKTISKAKGQPREPQVYTLPPSREEMTKNQVSLSCAVKGFYPSDIAVEWESNGQPENNYKTTPPVLDSDGSFFLVSKLTVDKSRWQQGNVFSCSVMHEALHNHYTQKSLSLSPGK
On to B3, for which the EC50 with human CD3 is 2.62 nM; in the assay with human CLDN6 it was 24.1 nM.

B4: IMC-2-7 tandem scFv antibody (bispecific antibody)
scFv: SYELTQPPSVSVSPGQTARITCSAGSGLYGWYQQKPGQAPVLVIYGTNKRPSGIPERFSGSSSGTTVTLTISGVQAEDEADYYCGSADSSTNAGIFGGGTKLTVLGGGGSGGGGSGGGGSEVQLLESGGGLVQPGGSLRLSCAASGFTFSSYAMNWVRQAPGKGLEWVAGISSSGRYTGYADSVKGRFTISRDNSKNTLYLQMNSLRAEDTAVYYCAKSVGSGVSWSGYVATSLDAWGQGTLVTVSSGGGGSEVQLVESGGGLVQPGGSLRLSCAASGFTFSTYAMNWVRQAPGKGLEWVGRIRSKYNNYATYYADSVKGRFTISRDDSKNTLYLQMNSLRAEDTAVYYCVRHGNFGDSYVSWFAYWGQGTLVTVSSGKPGSGKPGSGKPGSGKPGSQAVVTQEPSLTVSPGGTVTLTCGSSTGAVTTSNYANWVQQKPGKSPRGLIGGTNKRAPGVPARFSGSLLGGKAALTISGAQPEDEADYYCALWYSNHWVFGGGTKLTVL
In the case of B4, the EC50 came to 7.3 nM with human CD3 and 40.5 nM with human CLDN6.
